Measured values published in patent publication US20250189530A1 (STCUBE, published 2025).

Tests used:
[1] = target: T1, denatured hBTN1A1 ICD (human, UniProt Q13410 270-526); test: ELISA, 10X dilution
T1 construct: Same protein as hBTN1A1 ICD, denatured before the ELISA; also called hBTN1A1 ICD denatured; Denatured ICD
T1 sequence: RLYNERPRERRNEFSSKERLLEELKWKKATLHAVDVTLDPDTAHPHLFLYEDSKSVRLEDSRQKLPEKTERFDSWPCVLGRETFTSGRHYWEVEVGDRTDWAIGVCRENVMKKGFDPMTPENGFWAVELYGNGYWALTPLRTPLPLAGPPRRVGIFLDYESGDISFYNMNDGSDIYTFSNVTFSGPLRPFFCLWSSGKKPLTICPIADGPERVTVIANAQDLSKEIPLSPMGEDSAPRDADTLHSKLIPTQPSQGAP

[2] = target: TRIM variant expressed by HEK293T cells; test: western blot, STC43H11-1 band over Flag band
[3] = target: peptide 4 WT expressed by HEK293T cells (human); test: western blot, STC43H11-1 band over Flag band
[4] = target: peptide 4 variant A371G expressed by HEK293T cells (human); test: western blot, STC43H11-1 band over Flag band
[5] = target: peptide 4 variant C375A expressed by HEK293T cells (human); test: western blot, STC43H11-1 band over Flag band
[6] = target: peptide 4 variant D366A expressed by HEK293T cells (human); test: western blot, STC43H11-1 band over Flag band
[7] = target: peptide 4 variant D369A expressed by HEK293T cells (human); test: western blot, STC43H11-1 band over Flag band
[8] = target: peptide 4 variant E361A expressed by HEK293T cells (human); test: western blot, STC43H11-1 band over Flag band
[9] = target: peptide 4 variant E363A expressed by HEK293T cells (human); test: western blot, STC43H11-1 band over Flag band
[10] = target: peptide 4 variant G365A expressed by HEK293T cells (human); test: western blot, STC43H11-1 band over Flag band
[11] = target: peptide 4 variant G373A expressed by HEK293T cells (human); test: western blot, STC43H11-1 band over Flag band
[12] = target: peptide 4 variant I372A expressed by HEK293T cells (human); test: western blot, STC43H11-1 band over Flag band
[13] = target: peptide 4 variant R367A expressed by HEK293T cells (human); test: western blot, STC43H11-1 band over Flag band
[14] = target: peptide 4 variant T368A expressed by HEK293T cells (human); test: western blot, STC43H11-1 band over Flag band
[15] = target: peptide 4 variant V362A expressed by HEK293T cells (human); test: western blot, STC43H11-1 band over Flag band
[16] = target: peptide 4 variant V364A expressed by HEK293T cells (human); test: western blot, STC43H11-1 band over Flag band
[17] = target: peptide 4 variant V374A expressed by HEK293T cells (human); test: western blot, STC43H11-1 band over Flag band
[18] = target: peptide 4 variant W370A expressed by HEK293T cells (human); test: western blot, STC43H11-1 band over Flag band
[19] = target: TRIM variant expressed by HEK293T cells; test: western blot, HEK293T lysate, antibody 1 ug/ml
[20] = target: peptide 4 WT expressed by HEK293T cells (human); test: western blot, HEK293T lysate, antibody 1 ug/ml
[21] = target: peptide 4 variant C375A expressed by HEK293T cells (human); test: western blot, HEK293T lysate, antibody 1 ug/ml
[22] = target: peptide 4 variant D366A expressed by HEK293T cells (human); test: western blot, HEK293T lysate, antibody 1 ug/ml
[23] = target: peptide 4 variant D369A expressed by HEK293T cells (human); test: western blot, HEK293T lysate, antibody 1 ug/ml
[24] = target: peptide 4 variant E361A expressed by HEK293T cells (human); test: western blot, HEK293T lysate, antibody 1 ug/ml
[25] = target: peptide 4 variant E363A expressed by HEK293T cells (human); test: western blot, HEK293T lysate, antibody 1 ug/ml
[26] = target: peptide 4 variant G365A expressed by HEK293T cells (human); test: western blot, HEK293T lysate, antibody 1 ug/ml
[27] = target: peptide 4 variant G373A expressed by HEK293T cells (human); test: western blot, HEK293T lysate, antibody 1 ug/ml
[28] = target: peptide 4 variant R367A expressed by HEK293T cells (human); test: western blot, HEK293T lysate, antibody 1 ug/ml
[29] = target: peptide 4 variant T368A expressed by HEK293T cells (human); test: western blot, HEK293T lysate, antibody 1 ug/ml
[30] = target: peptide 4 variant V362A expressed by HEK293T cells (human); test: western blot, HEK293T lysate, antibody 1 ug/ml
[31] = target: peptide 4 variant V364A expressed by HEK293T cells (human); test: western blot, HEK293T lysate, antibody 1 ug/ml
[32] = target: peptide 4 variant V374A expressed by HEK293T cells (human); test: western blot, HEK293T lysate, antibody 1 ug/ml
[33] = target: peptide 4 variant W370A expressed by HEK293T cells (human); test: western blot, HEK293T lysate, antibody 1 ug/ml
[34] = target: T2, LDHB peptide VIKLKGYTNWAIGLS; test: SPR sensorgrams (Response in RU), series 15.625-500 nM
T2 construct: also called l-lactate dehydrogenase B chain (LDHB) isoform X1 peptide
T2 peptide: VIKLKGYTNWAIGLS

[35] = target: T3, MALRD1 peptide TQDSEDDLDWAIGSR; test: as above
T3 construct: also called MAM and LDL-receptor class A domain-containing protein 1 isoform X1 peptide
T3 peptide: TQDSEDDLDWAIGSR

[36] = target: T4, CILK1 peptide AQPVHGRTDWASKYA; test: SPR sensorgrams (Response in RU), 15.625, 31.25, 62.5, 125 and 500 nM
T4 construct: also called serine/threonine-protein kinase ICK (CILK) isoform 2 peptide
T4 peptide: AQPVHGRTDWASKYA

ELISA signal [1]: 2.9
Normalized Fold [2]: -0.00102
Normalized Fold [3]: 0.478
Normalized Fold [4]: 0.045
Normalized Fold [5]: 1.32
Normalized Fold [6]: -0.0409
Normalized Fold [7]: 0.000853
Normalized Fold [8]: 0.231
Normalized Fold [9]: 0.323
Normalized Fold [10]: 0.414
Normalized Fold [11]: 0.0107
Normalized Fold [12]: 0.000608
Normalized Fold [13]: 0.239
Normalized Fold [14]: 0.0496
Normalized Fold [15]: 1.18
Normalized Fold [16]: 0.128
Normalized Fold [17]: 0.237
Normalized Fold [18]: 0.0394
STC43H11-1 Adj. Vol. (Int) [19]: -7610
STC43H11-1 Adj. Vol. (Int) [20]: 4.02e+06
STC43H11-1 Adj. Vol. (Int) [21]: 4.8e+06
STC43H11-1 Adj. Vol. (Int) [22]: -228000
STC43H11-1 Adj. Vol. (Int) [23]: 5470
STC43H11-1 Adj. Vol. (Int) [24]: 1.35e+06
STC43H11-1 Adj. Vol. (Int) [25]: 2.61e+06
STC43H11-1 Adj. Vol. (Int) [26]: 2.26e+06
STC43H11-1 Adj. Vol. (Int) [27]: 19900
STC43H11-1 Adj. Vol. (Int) [28]: 1.48e+06
STC43H11-1 Adj. Vol. (Int) [29]: 374000
STC43H11-1 Adj. Vol. (Int) [30]: 7.03e+06
STC43H11-1 Adj. Vol. (Int) [31]: 480000
STC43H11-1 Adj. Vol. (Int) [32]: 672000
STC43H11-1 Adj. Vol. (Int) [33]: 221000
binding result [34]: no binding (tested: 500 nM)
binding result [35]: no binding (tested: 500 nM)
binding result [36]: no binding (tested: 500 nM)
B1: STC43H11-1 (antibody, V domains shown)
VH: QSLEESGGRLVTPGGSLTLTCTVSGIDLSSYAMGWVRQAPGEGLEWIGSIGTGGGTGYASWAKGRFTISKTSTTVDLKMTSLTASDTATYFCATSNLWGPGTLVTVSS
VL: QVLTQTASPVSAAVGGTVTINCQASQSVYNNNRCSWFQQKPGQPPKRLIYHTSTLDSGVPSRFKGSGSGTQFTLTISDVQCDDAATYYCLGNYDCSRADCAAFGGGTEVVVK
notes: From immunized New Zealand rabbits; IgG heavy chain and Kappa light chain; also called clone #43H11; Clone 43H11
